Test results published in patent US8241627B2, “Modified polypeptides stabilized in a desired conformation and methods for producing same” (The Center for Blood Research, Inc., priority 2000, dated 2012).

Experiments:
ICAM-1 [1] = molecular target: T1, ICAM-1 (Homo sapiens, UniProt P05362); assay: Binding of LFA-1 or isolated I-domain transfectants to immobilized ICAM-1; assay type: cell-based; design: ICAM-1 was purified from human tonsil; from tissue; host or cells: human tonsil
Description: Clones of the transfectants that expressed similar levels of cell surface LFA-1, as determined by flow cytometry using monoclonal antibody TS2/4 (FIG. 3B), were tested for their ability to bind to immobilized ICAM-1, as previously described (Lu, C and Springer, T A (1997) J Immunol 159:268-278).
Briefly, ICAM-1 was purified from human tonsil, and coated to 96-well plates as described previously (Lu, C and Springer T A, (1997) J Immunol 159:268-278). Cells were labeled with a florescence dye 2′,7′-bis-(carboxyethyl)-5(and-6)-carboxyfluorescein, acetoxymethyl ester (BCECF-AM), and resuspended to 1×10^6/ml in L15/FBS. 50 μl cell suspension was mixed in ICAM-1 coated wells with an equal volume of L15/FBS in the absence or presence of monoclonal antibody (CBRLFA-1/2, 10 μg/ml). Monoclonal antibodies were used at final concentration of 1:20 hybridoma supernatant, 1:200 ascites, or μg/ml purified IgG. For testing the effect of divalent cations, BCECF-AM-labeled cells were washed 2× with TS buffer, pH7.5 (20 mM Tris, pH 7.5, 150 mMNaCl) containing 5 mM EDTA, followed by 2 washes with TS buffer, pH7.5. Cells were then resuspended to 5×10^5/ml in the TS buffer, pH7.5 supplemented with 1 mM MgCl2/CaCl2, MgCl2, MnCl2 mM EDTA, and 100 μl cell suspension was added to ICAM-1 coated wells. After incubation at 37° C. for 30 minutes, unbound cells were washed off on a Microplate Autowasher (Bio-Tek Instruments, Winooski, Vt.). The fluorescence content of total input cells and the bound cells in each well was quantitated on a Fluorescent Concentration Analyzer (IDEXX, Westbrook, Me.). The bound cells were expressed as a percentage of total input cells per sample well.
For generating stable K562 transfectants that express the I-domain on the surface, 20 μg of SspI-linearized pcDNA3.1/Hygro(+) containing the sequences encoding the I domain and the PDGFR transmembrane domain was used to transfect K562 cells by electroporation as described above. Transfectants were selected for resistance to 100 μg/ml hygromycin B, and were further subcloned by cell sorting and limiting dilution; clones that expressed similar levels of surface wild-type and mutant I domain-PDGFR were selected for functional studies. Stable cell lines were maintained in RPMI medium 1640 supplemented with 10% FBS and 100 μg/ml hygromycin B. Cell surface expression of the isolated I-domains was determined by flow cytometry using antibody TS1/22 to the I-domain (FIG. 7). Two clones from each transfectant were selected and tested for binding to immobilized ICAM-1, and similar results were obtained with each of the two clones (FIG. 8A).
If the constitutive ligand binding activity of mutant K287C/K294C is due to the formation of a disulfide bond between the introduced C287 and C294, disruption of the disulfide bond with a reducing agent would abolish ligand binding ability of the mutant. Accordingly, the transfectants were treated with the reducing agent DTT (10 mM) in L15/FBS containing Mg^2+ and Ca^2+, and the ability of transfectants to bind to ICAM-1 was assessed.
Furthermore, the effect of divalent cations on ligand binding of the isolated I-domains expressed on the surface of K562 transfectants was tested. The binding reactions were performed in HEPES/NaCl/glucose (20 mM HEPES, pH 7.5, 140 mM NaCl, 2 mg/ml glucose) supplemented with 1 mM […], 1 mM Mg^2+, or 1 mM EDTA.
Target sequence in this assay (P05362 28-532): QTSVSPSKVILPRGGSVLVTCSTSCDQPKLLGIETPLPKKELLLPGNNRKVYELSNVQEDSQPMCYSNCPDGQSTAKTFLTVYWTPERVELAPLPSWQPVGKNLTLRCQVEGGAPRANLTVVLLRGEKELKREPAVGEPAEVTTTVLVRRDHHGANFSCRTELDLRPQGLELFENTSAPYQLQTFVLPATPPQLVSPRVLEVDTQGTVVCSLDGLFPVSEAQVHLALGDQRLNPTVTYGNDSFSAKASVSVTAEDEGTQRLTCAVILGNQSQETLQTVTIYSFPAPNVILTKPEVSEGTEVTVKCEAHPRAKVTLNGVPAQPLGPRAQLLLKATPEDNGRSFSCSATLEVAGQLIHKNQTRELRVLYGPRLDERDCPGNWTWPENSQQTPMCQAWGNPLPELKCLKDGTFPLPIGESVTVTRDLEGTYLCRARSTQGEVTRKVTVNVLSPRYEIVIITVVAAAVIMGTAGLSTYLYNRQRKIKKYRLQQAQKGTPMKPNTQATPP

[2] = tested on: murine T lymphoma cell line EL-4; assay: PMA-induced LFA-1-dependent homotypic aggregation of EL-4 cells; assay type: cell-based; conditions: 50 ng/ml PMA, 2 hours at 37° C.
Description: Cells were incubated in a 96 well plate in the presence of 50 ng/ml PMA and varying amounts of soluble I-domains.

ICAM-1 [3] = molecular target: T1, ICAM-1; assay: BIAcore binding of soluble αL I-domains to ICAM-1
Description: (§1) Briefly, recombinant mutant αL I-domain stabilized in the open conformation (K287C/K294C), or recombinant wild-type αL I-domain from amino acid residue G128 to Y307, were cloned into pET11b (Novagen) and expressed in E. coli induced with 1 mM IPTG for 4 hours. The recombinant proteins were purified from inclusion bodies by solubilization of inclusion bodies in 6M guanidine HCl and were refolded by dilution in the presence of 0.1 mM Cu^2+/phenanthrolin to enhance formation of disulfide bonds. Protein was concentrated by ammonium sulfate precipitation, dialyzed, and purified over a monoQ ion-exchange column. […] The recombinant proteins were then purified by gel filtration and concentrated by Centriprep. For BIAcore™ analysis, recombinant ICAM-1, ICAM-2 and ICAM-3 Fc chimeras were immobilized on the BIAcore™ sensor chip by an amine-coupling method. Recombinant αL I-domains were flowed in, and BIAcore™ assays were performed with Tris-buffered saline supplemented with 1 mM MgCl2 or 2 mM EDTA, at a flow rate of 10 μl/minute at 25° C.
Target sequence in this assay (P05362 28-480 limits assumed): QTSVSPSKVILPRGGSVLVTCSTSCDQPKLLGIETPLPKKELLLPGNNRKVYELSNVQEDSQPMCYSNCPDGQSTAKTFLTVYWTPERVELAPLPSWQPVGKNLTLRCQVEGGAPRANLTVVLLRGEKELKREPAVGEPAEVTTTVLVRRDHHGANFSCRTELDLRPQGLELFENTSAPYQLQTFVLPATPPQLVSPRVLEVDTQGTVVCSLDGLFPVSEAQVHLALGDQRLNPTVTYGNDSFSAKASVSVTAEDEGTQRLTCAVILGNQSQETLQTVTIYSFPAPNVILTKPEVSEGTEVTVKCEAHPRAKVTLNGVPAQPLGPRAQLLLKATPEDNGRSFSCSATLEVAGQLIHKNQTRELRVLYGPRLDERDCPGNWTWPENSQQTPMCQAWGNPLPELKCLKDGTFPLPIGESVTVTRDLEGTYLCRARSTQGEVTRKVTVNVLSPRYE

murine ICAM-1 = murine ICAM-1 (Mus musculus, UniProt P13597); assay: Affinity of open I-domain for murine ICAM-1; assay type: binding
murine ICAM-1, sequence (P13597 28-537): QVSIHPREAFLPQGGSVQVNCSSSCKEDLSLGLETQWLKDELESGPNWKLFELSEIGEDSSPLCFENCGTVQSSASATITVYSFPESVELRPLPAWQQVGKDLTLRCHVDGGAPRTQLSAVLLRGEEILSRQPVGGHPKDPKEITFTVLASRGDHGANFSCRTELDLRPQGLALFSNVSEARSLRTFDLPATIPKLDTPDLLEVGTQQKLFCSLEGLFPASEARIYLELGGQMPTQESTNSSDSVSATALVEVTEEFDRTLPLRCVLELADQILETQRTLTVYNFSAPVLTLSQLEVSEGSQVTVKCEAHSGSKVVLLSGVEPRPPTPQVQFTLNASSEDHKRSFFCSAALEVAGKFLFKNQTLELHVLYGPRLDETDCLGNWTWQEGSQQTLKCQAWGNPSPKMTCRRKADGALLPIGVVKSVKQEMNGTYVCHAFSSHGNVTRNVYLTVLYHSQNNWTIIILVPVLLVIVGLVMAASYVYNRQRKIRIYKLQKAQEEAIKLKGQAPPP
Description: as §1
To analyze binding kinetics, different concentrations of open I-domain were tested for ligand binding (FIG. 9, Panels B, D and F).

ICAM-2 = molecular target: T2, ICAM-2 (Homo sapiens, UniProt P13598); assay: BIAcore binding of soluble αL I-domains to ICAM-2; conditions: 1:1 interaction model
T2 sequence (P13598 25-223 limits assumed): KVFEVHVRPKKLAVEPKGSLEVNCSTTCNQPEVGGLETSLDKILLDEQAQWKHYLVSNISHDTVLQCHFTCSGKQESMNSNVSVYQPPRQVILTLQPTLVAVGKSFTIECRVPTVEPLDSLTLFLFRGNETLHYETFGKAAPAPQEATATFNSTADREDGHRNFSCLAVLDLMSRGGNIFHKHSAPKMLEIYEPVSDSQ
Description: as §1

[4] = BIAcore, 1:1 interaction model, 1 mM MgCl2, 25° C.

B1: K287C/K294C: human αL (LFA-1) I-domain with K287 and K294 replaced by cysteines; high affinity locked open; tested in intact LFA-1, cell-surface and soluble forms (protein)
chain: GNVDLVFLFDGSMSLQPDEFQKILDFMKDVMKKLSNTSYQFAAVQFSTSYKTEFDFSDYVKRKDPDALLKHVKHMLLLTNTFGAINYVATEVFREELGARPDATKVLIIITDGEATDSGNIDAAKDIIRYIIGIGKHFQTKESQETLHKFASKPASEFVCILDTFECLKDLFTELQKKIY
notes: human αL (LFA-1) I-domain with K287 and K294 replaced by cysteines; tested in intact LFA-1, cell-surface and soluble forms
- binding of 293T transient transfectants to immobilized ICAM-1 (ICAM-1 [1]; 293T, no activating antibody): constitutively strong binding
- binding of K562 cells expressing isolated I-domains to immobilized ICAM-1 (ICAM-1 [1]; I-domain on cell surface via PDGFR transmembrane domain): strong binding
- binding of isolated I-domain to ICAM-1 after EDTA treatment (ICAM-1 [1]; K562, 1 mM EDTA): abolished
- binding of K562 stable transfectants to immobilized ICAM-1 with activating mAb CBRLFA-1/2 (ICAM-1 [1]; K562, CBRLFA-1/2 10 μg/ml): did not further enhance binding
- binding of K562 transfectants to ICAM-1 in the presence of EDTA (ICAM-1 [1]; K562, intact LFA-1, EDTA): abolished
- binding of K562 stable transfectants to immobilized ICAM-1 (ICAM-1 [1]; K562, no activating antibody): strongly bound
- effect of DTT treatment on binding to ICAM-1 (ICAM-1 [1]; K562 transfectants, DTT 10 mM in L15/FBS): abolished
- inhibition of PMA-induced LFA-1 dependent homotypic aggregation [2]: inhibited
- interaction of I-domain with ligands in the presence of EDTA (ICAM-1 [3]; 2 mM EDTA, ligands ICAM-1, -2, -3): abolished
- Koff, open I-domain binding to ICAM-1 (ICAM-1 [3]; [4]): 0.0230 s⁻¹
- Kon, open I-domain binding to ICAM-1 (ICAM-1 [3]; [4]): 128000 M⁻¹ s⁻¹
- Kon, interaction of αL I-domains with ICAM-1 (ICAM-1 [3]; calculated by Koff/KD): 128000 M⁻¹ s⁻¹
- Koff, interaction of αL I-domains with ICAM-1 (ICAM-1 [3]; curve fitting of dissociation phase, 1:1 binding model): 0.0230 s⁻¹
- affinity for murine ICAM-1 (murine ICAM-1): nanomolar range
- Koff, open I-domain binding to ICAM-2 (ICAM-2): 0.0118 s⁻¹
- Kon, open I-domain binding to ICAM-2 (ICAM-2): 23000 M⁻¹ s⁻¹
